Measurements published in the domain aggregation screens of Martell et al. (2025).
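Note: 20 min heating vs room temperature control held 20 min.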

Test: soluble fraction after stress (log2 fold change); higher = more stays soluble; pooled small domains, quantitative proteomics
Details: stress: 75 degC
With “HMKFIPPSLEEARAYFVEKGSSEPEAEKFVNHFDSIGWKVGRARTPMKKWKSAANNWIANNREWNQ” the “soluble fraction (log2)” value was -0.543.
For “HMKFKDYYAALGIDRNADLEQIKKAYRKLARQYHPDVSKAPDAEARFKDAAEAYATLKNPEKRAAYDELGS”, the “soluble fraction (log2)” value was 0.0895.
With “HMKFLHLADLHLGKRVNGFSMLEDQAYILRQILTILDDERPDGVLIAGDVYDKPVPPTEAVELLD” the “soluble fraction (log2)” value was -0.859.
With “HMKFLYQKAREEIISLIQDGEIKPSEKIMPERELSELLGYNRMTIKKAINSLVAEGVLMKKRGAGTFLLG” the “soluble fraction (log2)” value was -0.292.
For “HMKFLYQQVYQDIKDKITSAQYQFGDLLPSEREIGEEYHVDRTTVRKAFSLLVDEGLVEKRAGKGSVVIS”, the “soluble fraction (log2)” value was -0.74.
In the case of “HMKFTELEQLMLKREINTLADIARVLKTTPQAVSNWKARDQIPYHIVAKINASINKDSNDSSLSI”, the “soluble fraction (log2)” value is reported as -0.328.
For “HMKFTSEKDISLLELVKAKMGFVSNTKARNVIKIGQIMVSGKVIKIPSTLIKPGTEVELARRV”, the “soluble fraction (log2)” value was -1.76.
In the case of “HMKFYKMIDESDEKIENPEIMIFQIIELVSSTTYSAIINKEPVDVETLKPYLYQTIRTIIINHQS”, the “soluble fraction (log2)” value is reported as 0.363.
For “HMKGEKVTKIELSNFIKFLINDLENKGFFNPPEKKDSMIDNIYSIYNKMTLTKKELNMLWGMHKKLK”, the “soluble fraction (log2)” value was -1.9.
For “HMKGERHNKILELIQQHAIDRQEDLLRYLKEAGFQVTQATVSRDIRELHLVKVAAGGGQYRYVSAAAAS”, the “soluble fraction (log2)” value was -1.04.
With “HMKGIHDYITKDGLRVVKVHYSADPDKDVTTVEGKKWMAKALLGYPGGLEGAKWRREMEIDFNA” the “soluble fraction (log2)” value was -0.167.
For “HMKGILVPASSIISDGDKNYVWTVEKGKAKKVEVTLGNADAENQEISSGLTKDSKVITNPTDSLKDGQEV”, the “soluble fraction (log2)” value was 0.228.
With “HMKGKDLQDAVVTVVGGAENWNAIRAWAQASASDSEKREINAAFQSGKLMATMMAERLALAYQQSG” the “soluble fraction (log2)” value was 0.182.
For “HMKGKITTNWVSLTSDLGWLRSELYSSGSVLEERISNEGLIELHLENFQNDLIKLLEVEGFDLIKE”, the “soluble fraction (log2)” value was -3.18.
For “HMKGQLVVFPNPASSNDMVRFNKNISFSIFDITGHLVDTKRNVNELSVGNLEAGTYILRTEQGDVLRMVI”, the “soluble fraction (log2)” value was -1.45.
For “HMKGRPTTAIITDERTNLRSGPGATNKTIAQAGAGEKLAIIDEKDGWYQVSRAGINGWVAGWVIDVAW”, the “soluble fraction (log2)” value was -1.83.
In the case of “HMKGSIFLDEATKMVDNSALKSLNTFLEEYARETNNQIFLISHQETPAEVTQIKLKKVGGETSYE”, the “soluble fraction (log2)” value is reported as 0.154.
In the case of “HMKGSPFSQLPKEKKKRILQAAIEVFAQNDYKHASTDEIASRAGISKGLLFYYFHDKKTLYFYLGEYLKR”, the “soluble fraction (log2)” value is reported as 0.118.
With “HMKGTLPEMITSREEVVLKFMVNGWDAKRIASELDISVLTVRKHIANIYEKLHVQSKAEIISMAHQQKWFN” the “soluble fraction (log2)” value was -3.27.
With “HMKGTSIELIVPQDIAGLRLDQVLAKLLPQWSRSRLQSWINEKHITVNGQTTTAKQKLWGNETIQIIPPI” the “soluble fraction (log2)” value was -1.45.
For “HMKHEFSEEWLDWIKSNIADGQNKNGLFKVLLNHGYAYDAVREVMQYEPTVPLDELVDPLRA”, the “soluble fraction (log2)” value was -0.143.
For “HMKHFNDEELDGFAGLKSDDYNEEQVELFRNIFEELHPDEIIEWTESLRRRGIEIPSSLKDEVVMMIN”, the “soluble fraction (log2)” value was 0.29.
With “HMKHFTYEEMELMSIYDPGTREGLIANLEEMRGYLEPDETELRELTDSALEKLRELSDADYEQLELI” the “soluble fraction (log2)” value was -0.516.
For “HMKHMTMYEAAKIAKEVGAPKLWLTHYSPSMTRPEEFMDDVRKIFPAAYAAKDGWTMELNFDEG”, the “soluble fraction (log2)” value was -0.74.
With “HMKHRTQMDIQQLPAIEGKGGFEYKISIIHLSTRIKYSEIHDNYNTTTIAKVYENAIERLPPF” the “soluble fraction (log2)” value was -2.39.
For “HMKHSLNHLGLWLLPELSRRDIQLREFAHLLGTTSQGLSDLLRGQRFSSHTLAQWQLRFQEKLDEIDQAS”, the “soluble fraction (log2)” value was -1.99.
With “HMKHTVSVDRLQPGVFVSLGGLSWLDHPFLLNRFRLTDHDQIKVLRSLGVKEIEWDPTRSTAQPLPE” the “soluble fraction (log2)” value was -1.04.
With “HMKIAPRTAENQQLRKMILEIYTTSKKRVGPAKVRRMLLRDYGISISIGRVYRLMSTMNLPKMS” the “soluble fraction (log2)” value was 0.0421.
In the case of “HMKIDLPIWLNKKAWEAWVEYKKERKQKLTPSIIKFQLRILEKNKEDHPEIIRNSITNGWTGLFPLK”, the “soluble fraction (log2)” value is reported as -1.81.
In the case of “HMKIEDSNTIKLKANQAYKTHYYSEAIKLYDELLTKYEPNSEAIKLNLAHAHFKAKGFAAASKLYT”, the “soluble fraction (log2)” value is reported as 0.0472.
For “HMKIELTDQQKSLVVDEWNKGEANPPSLLQLIRLAYPDQPHLDGRSKEGKAVKAFLATRDINPLA”, the “soluble fraction (log2)” value was 0.0244.
In the case of “HMKIETVENPLLERTEISALFDSKSGSLTRKEAIDLISKKARIDSSTVYAIKLSNSSGSTRIIGLFY”, the “soluble fraction (log2)” value is reported as 0.16.
For “HMKIIDDIQEFAGVTKTQNTFFHIFNHLHQNGKQLILTSDRAPVMLQGMEERLLTRFKWGLVAELE”, the “soluble fraction (log2)” value was 0.285.
In the case of “HMKIKKIWFDGDYIYGMDERNNTYRQSLLWYSKLRNASAEERERYTFSTIGIHWRELDEDVSFESF”, the “soluble fraction (log2)” value is reported as -3.03.
With “HMKIKLQATEQQRKTLDELYVQLKKLEPTSKEDLSLLYRLENPHLVSKQEAQGLISIAIGRVGSLAIEQQ” the “soluble fraction (log2)” value was -0.44.
For “HMKINKQHLAFQIFGIRAKLGLSMEQFGELLGANKSSVSGWERGTVVPSSQRLKKIAELGKISLAELLTP”, the “soluble fraction (log2)” value was -3.01.
For “HMKINVQETEVYRYLLERADRLYSMILGEERENLMERTRFFEKEVAKASLPHLPKLYDEFSIYLDRLERG”, the “soluble fraction (log2)” value was -0.393.
With “HMKIPYGELIKLLNAAAPKLQDAQGWMDMEAAGQFIGSRWSYLDYGFKDWPDSFKTVHGLEIQGQRMRLA” the “soluble fraction (log2)” value was -0.577.
In the case of “HMKIQISGSQRIDENVVVKVAGLSFPQSLLSLEPGQIESKLMQELPVQEVSVQRRLLPPGLDIQLVE”, the “soluble fraction (log2)” value is reported as -0.0996.
With “HMKIQTYEDFRNAYPDIQGSLFGSAERYKTDLDWGDVAAKYDADEELKNVRNIFQLVRRYEQKYS” the “soluble fraction (log2)” value was 0.612.
For “HMKISIPQEYFEIYNVLKQRPMHINEISKILKKPVSEISGTISLMEIEGYITKLTTDQYVLKKI”, the “soluble fraction (log2)” value was -0.473.
In the case of “HMKITADQEIETAINYFKKSIAEKGWKGVNPDEFKQMNDYLSETFGYSATIKFQKALDEQGLMVDE”, the “soluble fraction (log2)” value is reported as -0.0068.
For “HMKITININIETLSHHIKQSGVPLGRLQESVPDYNEIVTGNKSPTYQQLEKISKLIRVPLGLLVIESPL”, the “soluble fraction (log2)” value was 0.039.
In the case of “HMKITLAESVYERIRRDIITNQLKPGEKINIRELSTRYEASETPIRLALNRLASENIIEHFPRQGMRVK”, the “soluble fraction (log2)” value is reported as -1.4.
With “HMKIVPEPGTVLIREYQEERHEVTVTLDGAFDYKGTLYSSLSEIARLITGTRWSGPVFFGLRS” the “soluble fraction (log2)” value was -0.369.
For “HMKIYDQVVDRIKDRISKGDMPQGSALPPERQLIDELNVSRSSLREGFRILEMMGLIESIPGKGRFVRTSR”, the “soluble fraction (log2)” value was -0.607.
In the case of “HMKKAIYPGSFDPLTLGHIDIIKRASGIVDELVVGVLNNSAKNSLFSLDERVSMIEEMTKDLPNVSVTSFD”, the “soluble fraction (log2)” value is reported as 0.16.
With “HMKKEDFLEILRDYLKKGFSEDEVMDILRDYEEYFVDGIIEGKSEIEIIQSLGSPKEIANELLAES” the “soluble fraction (log2)” value was -0.631.
In the case of “HMKKEQVIVPNVVGDTYDVALRKLTDAKLKVGETFPADREGHQGVIEKQSPAAGETVDEDTPVALFFKV”, the “soluble fraction (log2)” value is reported as 0.0903.
For “HMKKERITWDERLERFAKYITENESLPYPSSKEHAWFEENKALYDAGELESVRAQSFSFLLKILRRMNLI”, the “soluble fraction (log2)” value was -0.787.
In the case of “HMKKGATVSGVIVEKTKKSLIIDLGAKTEGVVADKEFEFAIDFVKELKKGDEVKAIVISTDNDKGQVVLSL”, the “soluble fraction (log2)” value is reported as -0.414.
With “HMKKHALFTLFKHHNANGTTVWYARFWDDATQRYAIARSTGVLAQGKRERHDEAITVAREMASSIQFS” the “soluble fraction (log2)” value was -2.81.
For “HMKKHAPSLMRQIRRELKEGKSPESLLSKAKLISDSYYRSLSFYLLIPYLSPNSKQFQEAISLAGKDID”, the “soluble fraction (log2)” value was 0.175.
For “HMKKKSYIVSFATDEDAQRFAREGFEVISLSGRQITVSLKGEMMPLVKALGSYQVVGLETVA”, the “soluble fraction (log2)” value was -1.77.
For “HMKKLPDDANDIIERVSSRLAQKFRFGYHTIDDMKQQAALFAWEGIYDSWDDSRPLENFLWIHVRNRLYN”, the “soluble fraction (log2)” value was -0.111.
With “HMKKLTGVQKAAILMIALGPDISSSIIKRLPENMVERITYEIANMTKITAQQRNDILKEFMDMTVAQ” the “soluble fraction (log2)” value was -3.64.
In the case of “HMKKNTEALDYYKKAGANFPEDEVISSEYLFRAAQLQEVLGKTDEAVAIYKDIKAKYPTTEIGLNVDKFIL”, the “soluble fraction (log2)” value is reported as 0.0379.
In the case of “HMKKQLKSEAVADELRRKILSGGFPDKRLPRKDELTEYFQVSQKTVEAALKMLTAEGLIRGVKGTGIFVNG”, the “soluble fraction (log2)” value is reported as -0.703.
For “HMKKQLTISDGDWAGKVSSMLEDMGVINSASEFDKYLSDNGYSNVIKSGTYDVSPEDTFQELAEKIT”, the “soluble fraction (log2)” value was 0.952.
In the case of “HMKKRDAEIMLQREFKLTEAIAMVRDRDIQELLPIALYFKVNINQPTAEIRYNLLNIAKSKTQEFIEAFD”, the “soluble fraction (log2)” value is reported as -2.14.
For “HMKKRDANSQGTRLILFYMLQRLHTEYKLQGFVTYNQRRSFREIYDAYHALGGNGFGTAMWEEVKELDLK”, the “soluble fraction (log2)” value was -2.18.
For “HMKKTAAKVLGESEGKPVTVQSGRYGPYVQLGSIRATLPKDLEQDDVTLDRALELISAKAERAGK”, the “soluble fraction (log2)” value was -0.0332.
For “HMKKTDFNVENYDIEELAAILNFKYVPLNQGLIRDRIKDMKQRFKNKPEYIKFFTDVEIKLVNNLNLFN”, the “soluble fraction (log2)” value was -1.67.
For “HMKKTFSKSSVMEAIFRDIPNITIPNAHEVYTLIKNISVMNKRKSITSEDIEKAYDALGLTP”, the “soluble fraction (log2)” value was -0.928.
In the case of “HMKKTPLSELTNRAVELFIETVFMERNYSVSSQRQFISALKIFTVFYPQTKIHNLSLERLQSSFDKLLN”, the “soluble fraction (log2)” value is reported as -1.25.
For “HMKKTTEFAVTPEFQQRLEASPELKAAFQALTPGRQRAHLLFFAAPKQAQTRQARIEKSLPQIMAGKGLN”, the “soluble fraction (log2)” value was -0.2.
For “HMKKTVTDSVELLTFLKDIFTNTSTNKLRKMLTTGRVTVNNIVIHKAKHILVQNDVVEIGDK”, the “soluble fraction (log2)” value was -3.37.
In the case of “HMKKVIEFKDVSFAFEKKPILQDFNLLVQNKDRIGIVGDNGVGKSTLLNLIAERLQPQSGQVII”, the “soluble fraction (log2)” value is reported as 0.111.
In the case of “HMKKVSVKPILELRAAGISMRKIETLMHVSRHTISAIYKAADAYSISWDNVKDFDEDKIYEMLFPPTP”, the “soluble fraction (log2)” value is reported as -4.13.
In the case of “HMKKYEIIFNDLKQSIVNGKYSNEERLPPEETLAKKYQTSRVPVQQALNALVGIGMVKRIAGSGTYVTY”, the “soluble fraction (log2)” value is reported as -0.394.
